Measurements from patent publication US12692310B2, “ASIC1 channel antagonist antibody” (ShanghaiTech University, priority 2019, dated 2026).

Biological target: T1, hASIC1a-eYFP on CHO-K1 cells (Homo sapiens, UniProt P78348)
T1 construct: overexpress the full-length hASIC1a (1-528 amino acids) protein fused with eYFP; expressed in transfected cells; host or cells: CHO-K1, transient
T1 sequence (P78348 1-528): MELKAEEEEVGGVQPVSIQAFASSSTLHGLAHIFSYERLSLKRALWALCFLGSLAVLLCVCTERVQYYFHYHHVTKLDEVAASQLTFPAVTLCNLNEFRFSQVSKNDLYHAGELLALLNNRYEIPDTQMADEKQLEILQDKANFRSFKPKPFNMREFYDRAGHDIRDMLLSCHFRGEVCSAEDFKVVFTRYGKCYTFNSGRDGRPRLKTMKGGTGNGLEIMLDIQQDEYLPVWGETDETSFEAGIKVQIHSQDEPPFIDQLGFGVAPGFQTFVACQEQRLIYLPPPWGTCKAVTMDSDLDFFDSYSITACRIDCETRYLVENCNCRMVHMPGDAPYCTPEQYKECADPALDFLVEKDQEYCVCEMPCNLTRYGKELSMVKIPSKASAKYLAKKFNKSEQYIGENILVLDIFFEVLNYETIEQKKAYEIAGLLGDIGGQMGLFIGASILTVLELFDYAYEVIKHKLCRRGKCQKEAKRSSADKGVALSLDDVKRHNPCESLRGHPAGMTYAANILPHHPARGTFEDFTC
Assay: Immunocytochemistry on CHO-K1/hASIC1a cells
Format: cell-based
Details: ICC, confocal
Description: Cell Membrane Colocalization Studies Using Immunocytochemistry (ICC). Cells (CHO-K1) were seeded onto the poly-D-lysine-coated glass bottom 24-well plates at a concentration of 2×10^5 cells per mL. After 12 h of cultivation, the CHO-K1 cells were transfected with ASIC plasmids by Lipofectin 3000 reagent. Twenty-four hours after transfection, the cells were fixed in 4% paraformaldehyde and incubated for 30 min in a blocking solution (5% goat serum in PBS). The resulting cells were incubated with […] ASC06-IgG1 at 4° C. overnight followed by three PBS washes for 5 min each and incubation with the Alexa555-conjugated goat anti-human secondary antibody (Life Technology). After three additional PBS washes for 5 min each, the nuclei of the cells were stained with DAPI (#10236276001; Roche). The ICC analysis was performed on a laser scanning confocal microscopy (ZEISS LSM710) with a 63×N.A. 1.4 objective at 25° C. Images were collected on a 1,024×1,024-pixel EM-CCD camera. Data acquisition and analyses were performed with the ZEN 2012 professional software.
To understand whether ASC01-ASC06 specifically bind to the ASIC1a protein expressed on cell surface, the binding of the antibodies to CHO-K1/hASIC1a cells was evaluated using immunocytochemistry. The CHO-K1/hASIC1a cells overexpress the full-length hASIC1a (1-528 amino acids) protein fused with eYFP. […] It is likely that ASC01-ASC05 recognize specific ASIC1a confirmations or subpopulations.
The ASC06 antibody was converted into a full length IgG1 form (ASC06-IgG1) for further study. […] The binding of ASC06-IgG1 to CHO-K1/hASIC1a cells was evaluated using immunocytochemistry, in comparison with the ASC06 (scFv format) antibody.

B1: ASC06-IgG1: ASC06 antibody converted into a full length IgG1 form (antibody, V domains shown)
VH: QVQLQQSGGGLVQPGGSLRLSCAASGFTFSSYAMSWVRQAPGKGLEWVSAISGSGGSTYYADSVKGRFTISRDNSKNTLYLQMNSLRAEDTAVYYCAKDSFYGYSKGDWGQGTLVTVSS
VL: QSALTQPASVSGSPGQSITISCTGTSSDVGAYNYVSWYQQQPGKAPKLMIYGVSNRPSGVSNRFSGSKSGNAASLTISGLQAEDEADYYCSSYTSSSTYVFGTGTKLTVLG
How did the “membrane co-localization with hASIC1a” value turn out when B1 was run?
Its value is “membrane co-localization with hASIC1a”.
